Assay results as given in paper doi:10.1101/2022.05.09.491158.

Biological target: purified recombinant I-A^b carrying a cleavable linker peptide (mouse)
Assay: fluorescent peptide competition binding assay

Work on “NP peptide Q2, P2 (Ser to Gln) (from UniProt P03466 311-325)” yielded a reduction in peptide-MHC binding (against the unsubstituted peptide) of 3.4.
